# From the nanobody polyreactivity screen of Harvey et al. (2022)
# Test: yeast display, Sf9 membrane polyspecificity reagent, FACS + sequencing; frameworks hold sequencing errors
# Summary of the method: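 Using colony PCR, genes from sorted yeast display clones were amplified, then sequenced on MiSeq at 2 × 250 and filtered by CDR length. The clones had been stained with 10% biotinylated, detergent-solubilized Sf9 membrane reagent for 1 hour at 4 °C and sorted by FACS into low and high (top ~1%) gates on anti-HA and streptavidin fluorescence. Polyreactivity labels come from the gate of origin.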
row,Sequence,polyreactivity (PSR sort gate)
1,QVQLVDSGGGLVQEGGSLRLSCAASGNIFQTYDMGWYRQAHGKEREFVATITSSCARTYYADSVKGRFTISRDNAKNTVYVQMNCLKPEDTAVDYCNRVWSYANGYWGHGTQVTVSS,high polyreactivity
2,QVQLVDSGGRLVHAGGSLRLSCAASGRTIYRNAMGLYRQAPGKERELVAAISSDDSTNYSDSVKGRFTISRDNAKNTVYFQMNSLKPEDTAVYYCNADYYYGYDYDYWGQGSQVTVSS,low polyreactivity
3,QVQLVDSGRGLFQAGGSLRLSCAASGRTSSSNVMGWYRQAPGKERELVASINEGGNTYYADSVKGRFTISRDNATNTVYLQMNSLKPEDTAVYYCATEESGYSSWYGYGYSYDYWGQGTQVTVSS,low polyreactivity
4,QVQLVDSGRGLVQAGGSLRLSCAASGSTFRWNAMGWYRQAPGKERELVAAIDNSGTSTYYADSVKGRFTISRDNAKNTVYLQMNSLKPDDTAVYYCNVRISNTAYRYPTFDYWGQGTQVTVSS,low polyreactivity
5,QVQLVDSVGGLVKAGCSLRLSCAASGSTLPVNAKGCYRQAPGKERELVAAINRDGSTIYADSVKRPFTISRDIAKNTVYLKMNRLKPEDTAVYYCAADGFGYPGKRYDFWGQGTQVTVSS,low polyreactivity
6,QVQLVDSVGGLVQAGGSLRLSCAASGSIFGYYAMAWYRQAPGKERELFASITRSGDTTYYADSVKGRFTISRDNANNTVFLQMNSLKQEDTAVSYCAARRWRWYYDGFVRMDYWGQGTQVTVSS,high polyreactivity
7,QVQLVEACGGLVQAGGSLRLICAASGNIFAYNAMGWYRQAPGKERELVAAISVIGGTTYYADSVKGRFTISRDNAKNTVYLQMNSLKPEDTAVYSCSVDSVQYGGGYERLHELYYWGQGTQVTVSS,low polyreactivity
8,QVQLVEAGGCLVHAGGSLRLSCAASGRIFVGNAMGWYRQAPGKERELVAAINNGGTTYYADSVKGRFTIARDNGKNTVYLQMNSLKPEDTAVYHCAATPYRGTRSYLIGELDYWGQGTQVTVSS,low polyreactivity
9,QVQLVEAGGGLVQAGGRLRLSCAASGRIFGRTAMGWYRQAPGKERELGAAIRRSSASTYYADSVKGRFTISRDNAKNTFYLQMNSLKPEDTAVYYCATQSYSYYGYRYRYAAFDYWGQGTQVTVSS,high polyreactivity
10,QVQLVEAGGGLVQAGGRLRLSSAASGNIFIWYALGWYRQAPGKERELVAAIRWSGGGTYYADSVKGRFTISRDNAKNTVYFQMNSLKPEDTAVYYCAAESSASWYNFWGYEYWGQGTQVTVSS,high polyreactivity
11,QVQLVEAGGGLVQAGGSLRFSCAASGSLFRWYAMGWYRQAPGKERELVAAINRGGDSTYYADSVKGRFTISRDNAKNTVYLQMNSLKPEDTAVYYCNAVSSWKLLYSSYDSWGQGTQVTVSS,high polyreactivity
12,QVQLVEAGGGLVQAGGSLRLIFASSGSTLYLYVMVWYRQAPGKESELVDVISSSSGRTYYADSVKGRFTISRDNAKNSVYLQMNSLKPEDTAVYYCAADNYVGYHWYNYWGQGTQVTVSS,high polyreactivity
13,QVQLVEAGGGLVQAGGSLRLSCAASGRIFVYYTMGWYRQAPGKERELVAAIIGGGSTNYADSVKGRFTISRDNAKNTVYLQMNSLKPEDTAVYDCAAVRYRYSYVSHSRIYDYWGQGTQVTVSS,high polyreactivity
14,QVQLVEAGGGLVQAGGSLRLSCAASGRIFYYYAMGWYSQAPGKEREFVAAIRISGGSKNYADSVKGRFTISRDNAKNNVYLQMNSLKPEETAVYYSAARSKYSGIRRAYDYWGQGTQVTVSS,high polyreactivity
15,QVQLVEAGGGLVQAGGSLRLSCAASGRIIIYNAMGWYRQPPGKERELVAAISSTGGSTNYADSVKGRFTISRDNAMNSVYLQMNSLKPEDTAVYYCNALPGRASLRYNYWGQGTQVTVSS,high polyreactivity
16,QVQLVEAGGGLVQAGGSLRLSCAASGRISYTYAMGWYRQAPGNERELVAAITDGGSTTYADSVKGRFTISRDNAKNTVYLQMNSLKPEDTAVYYCNADTDSAKSPAYYYWGQGTQVTVSS,low polyreactivity
17,QVQLVEAGGGLVQAGGSLRLSCGASGRIFQSNAMGGYRLAPGKERELVAAISKSGGSTYYADSVKGRFTISRDNAKNTVYLQMNSLKPEDPAVYYCAAYPPRRMYYWGQGTQVTVSS,high polyreactivity
18,QVQLVEAGGGLVQAGGSLRLSGAASGYTFGGNAMGWYRPAPGKERELVAGITWTGGTTYYADSVKGRFTISRDNAKNTVYLQMNSLKPEETAVYYCNASLDSQDGDYWGQGTQVTVSS,low polyreactivity
19,QVQLVEAGGGLVQAGVSLRLSCAASGIIFGSYAMGWYRQAPGKERELVATISYDGGSTYYADSVKGRFTISRDNAKNTVYLQMKSLKPDDTAVSYCAAVYQSWFGLRSYYYWGQGTQVTVSS,high polyreactivity
20,QVQLVEAGGGLVQAGVSLRLSCAASGLTFVPNAMGWYRQAPGKERELVAAISNNGGRTYYADSVKGRFTISRDNAKNTVYLQMNSLKPEDTAVYYCAKYLSPGERHSYDYWGQGTQVTVSS,high polyreactivity

row,Sequence,polyreactivity (PSR sort gate)
1,QVQLVEAGRGLVHAGGSLRLSCDPSGLTFSRYAMGWYRPAPGKESELVPAISSRGGTTYYADSVKGRFTISRDYAKNTVYLQMYSMKPEDTAVYYCAAGYITWGSGNWVVTPYDVWGQGTQVTVSS,high polyreactivity
2,QVQLVEKGGGLVQAGGSLRLICAASGYIIWPNAMGWYRQAPGKERELVASITRAGSTNYADSVKGRFTISRDNAKNTVYLQMNSLKPEDTAVYYSAAYFWGGYNYWGQGTQVTVSS,low polyreactivity
3,QVQLVEKRGGLVQAGGILRLSCAASGCILVGYAMGWSRQAPGKERELVAAINYSGGSTNYADSVKGRFTISLDNAKNTVYLQMISLKPEDTAVYYCAARSTARYGYWGQGTQVTVSS,low polyreactivity
4,QVQLVELGGGLVQAGGSLRLSCAASGGTFPRYAMGWYRQAPGKERELVAAITSRGDRTYYADSVKGRFTISRDNAKNTVYLQMNSLKPEDTAVYYCAARLYYSSYGRVKMDYWGQGTQVTVSS,high polyreactivity
5,QVQLVESAAGLVQAGGSLRLSCAASGFIFQYYAMGWYRQAPGKERELVAAINRGGGTHYADSVKGRFTISRDNAKNTVYLQMNSLKREDTAVYYCNKVYYWPGSRPSRYEYWGQGTQVTVSS,low polyreactivity
6,QVQLVESAAGLVQAGGSLRLSCDASGSIFYSYAMGWYRQAPGKERELVAAITDSGDSTYYADCVKGRFTISRDNAKNTVYLQMNSLKPEDTAVYYCAAGFYPYYYWGQGTQVTVSS,low polyreactivity
7,QVQLVESAARLVQAGASLPLSCPASGRIFYTNAMGCYRQAPGKERELVAVMSWGGDTTYYADSVKGRFTISRDNATNTVYLQMNSLKPEDSAVYYCNAYSGPTYEIYDSWGLGTQVTVSS,low polyreactivity
8,QVQLVESAGCLVQAAASLRLSCSASGRTFYNYAMGWYRQAPGKEWELVASIRKNGGSTYYADSVKGRFTISRDNAKNTVYFQMNRLKPEDTAVYYCAAGRTVVTGSYYWGQGTQVTVSS,high polyreactivity
9,QVQLVESAGCLVQAGASLRLSCAASGRIISRNAMGWYRQAPGKERELVAAITWRGGSTYYADSVKGRFTISRDNAKNTVYLQMNSLKPEDTAVYYCNRDYRQYGYAYSGRYYWGQGTQVTVSS,high polyreactivity
10,QVQLVESAGCLVQAGGSLRLSCAASGSTIYRYAMGWYRQAPGKERELVAAITRTGGSTYADSVKGRFTISRDNAKNSVFLQMNSLKPEDTAVFYCAVQRYYVSSISPFYYWGQGTQVTVSS,low polyreactivity
11,QVQLVESAGGFVQAGGSLRLSCAASGRIYQQNGLRWYRQAPGKERELVAGINSGVGTNYADSVKGRFTISRDNAKNTVYLQMNSLKPEDTAVFYCAKSQPSYSGDRDYWGQGTQVTVSS,low polyreactivity
12,QVQLVESAGGFVQAGGSLRLSCAASGSIFTINAMGWYTQAPGKERELVAGIRWRGGSTYYADSVKGRVTISRDNAKNTVYFQMNSLKPEDTAVYYCNTRCLIRKFDYWGQGTQVTVSS,high polyreactivity
13,QVQLVESAGGIVQAGGSLRLSCAASGFTFSRYAKGWNRPEPGKEREWVAAMTSSGGSTYYADSVKGRFTISRDNAKNTVYLQMNSLKPEDTAVYYCNARASGRTYRVDYWGQGTQVTVSS,high polyreactivity
14,QVQLVESAGGLDQARGSLRLSCAASGFTFIRYAMGWYRQAPGKESELVATITRSGGSTYYADSVKGRFTISRDNAKNTVYLQMNSLKPEDTAVYYCAKRGTLGSYYYWGQGTQVTVSS,high polyreactivity
15,QVQLVESAGGLLQAGGTLRLICAASGRIFTNYAMGWYRQAPGKERELVAAINWSGSRTFYADSVMGRFTISRDNAKYTVYLQLNSLKPEDTAVYSCAADALRKPKIALYDYWGQGTQVTVSS,high polyreactivity
16,QVQLVESAGGLVHAGGSLRLSCAASGFIFWYYAMGWDRQSPGKERELVASISRGGDSTYYADSVKGRFTISRDNAKNTVYVQMNSLKPVDTAVYYCNARGRYRKSERRAFDYWGQGTQVTVSS,high polyreactivity
17,QVQLVESAGGLVHAGGSLRLSCAASGFNFGFNAMGWDRQAPGKERELVAVISARGGRTYYADSVKGRFTISRDNAKNSVYLQMNSLKPEDSAVYYSAADDFFRYFFTHWVGDDYWGQGTQVSVSS,low polyreactivity
18,QVQLVESAGGLVHAGGSLRLSCADSGSTIGDNAMGWYRQAPGKEREFVASISWSGASTYYADSVKGRFTISRDNAKNTVYLQMNSLKPEDTAVYFCAVYYSYYSHLYHLLFYYWGQATQVTVSS,low polyreactivity
19,QVQLVESAGGLVHAGGSLSLSCAASAILGNNAMGWYRQAPRKQRELVAAISARGGRTYYADSVKGRFTISRDNAKNTVYLQMNSLKPEDTAVYYCATLETSGVNYWGQGTQVTVSS,high polyreactivity
20,QVQLVESAGGLVQAGASLRLSCAASGRIFVRNAMGWYRQAPGKEREMVADITNGGSTNYADSVKGRFTISRDNAKNTVYLQKNRLNPEDTAVYYCNADGFVYDLRARPGWVDYWGQGTQVTVSS,low polyreactivity
